Measurements taken from the supplement of paper PMC10126150.
± gives the standard deviation of the averaged measurements.
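Also: ATP exposure 15 min at 22 °C before imaging.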

These sequences were tested on ATP (assay: switch fluorescence ratio, 500 uM ATP over buffer (Cy3 cluster intensity, sum of 5 cycles each) (fold (ratio)); higher = stronger signal-on switching upon ATP binding; sequences stand for … in TCGTCGGCAGCGTCAGATGTGTATAAGAGACAGTTTTTTTTTTTTTTTTTTTTTTTTT…TC). Conditions: aptamer strand: ATP DNA aptamer (quencher-CACCTGGGGGAGTATTGCGGAGGAAGG + anchor), 100 nM annealed; ATP concentration: 500 uM.
In short: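 Switching-strand clusters labelled with Cy3 on a modified Illumina MiSeq flow-cell were annealed to 100 nM quencher-labelled ATP aptamer, imaged in selection buffer, and re-imaged after 15 min with 500 uM ATP at 22 °C. This was done over five cycles with NaOH stripping and re-annealing in between. The fluorescence ratio is summed target-cycle over summed buffer-cycle Cy3 intensity per cluster, averaged per switch-domain sequence, excluding clusters outside 100-1000 RFU.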
TGGGACCGTC showed a switch fluorescence ratio of 1.052 ± 0.0042.
For TGGGACGCCG, the switch fluorescence ratio was 1.01 ± 0.015.
Sequence TGGGACGTTA has a switch fluorescence ratio of 1.04 ± 0.036.
TGGGACGTTG was tested, and the switch fluorescence ratio was 0.995 ± 0.014.
TGGGACTAGT gave a switch fluorescence ratio of 1.02 ± 0.059.
For TGGGAGAAGG, the switch fluorescence ratio was 1.02 ± 0.057.
With TGGGAGAGCG the switch fluorescence ratio was 0.973 ± 0.016.
For TGGGAGGTAC, the switch fluorescence ratio was 1.24 ± 0.3.
In the case of TGGGAGGTTA, the switch fluorescence ratio is reported as 0.965 ± 0.025.
In the case of TGGGAGGTTT, the switch fluorescence ratio is reported as 1.05 ± 0.18.
TGGGAGTTAG was tested, and the switch fluorescence ratio was 0.943 ± 0.03.
TGGGATAATG gave a switch fluorescence ratio of 1.012 ± 0.0042.
In the case of TGGGATACGA, the switch fluorescence ratio is reported as 4.47 ± 0.82.
TGGGATAGAT gave a switch fluorescence ratio of 0.996 ± 0.027.
Work on TGGGATAGGC yielded a switch fluorescence ratio of 0.991 ± 0.032.
TGGGATCGCC was tested, and the switch fluorescence ratio was 1.02 ± 0.028.
Work on TGGGATGATG yielded a switch fluorescence ratio of 1.008 ± 0.0095.
For TGGGATGCAA, the switch fluorescence ratio was 1.04 ± 0.035.
In the case of TGGGATGCAT, the switch fluorescence ratio is reported as 0.991 ± 0.034.
In the case of TGGGATGTGG, the switch fluorescence ratio is reported as 0.986 ± 0.019.
With TGGGATGTTC the switch fluorescence ratio was 0.989 ± 0.031.
TGGGATTATG showed a switch fluorescence ratio of 0.976 ± 0.0098.
Work on TGGGATTTGG yielded a switch fluorescence ratio of 0.98432 ± 0.00062.
TGGGATTTGT gave a switch fluorescence ratio of 0.9881 ± 0.0029.
With TGGGCAACTC the switch fluorescence ratio was 1.06 ± 0.021.
TGGGCAAGTT gave a switch fluorescence ratio of 1.04 ± 0.044.
TGGGCCAGTT was tested, and the switch fluorescence ratio was 0.981 ± 0.035.
In the case of TGGGCCCATT, the switch fluorescence ratio is reported as 1.02 ± 0.076.
Sequence TGGGCCGGGG has a switch fluorescence ratio of 0.989 ± 0.019.
TGGGCCGGTG showed a switch fluorescence ratio of 1.04 ± 0.05.
TGGGCCGGTT showed a switch fluorescence ratio of 1.05 ± 0.099.
Work on TGGGCCTATT yielded a switch fluorescence ratio of 0.976 ± 0.063.
With TGGGCCTCCA the switch fluorescence ratio was 1 ± 0.036.
For TGGGCGAAGG, the switch fluorescence ratio was 0.9702 ± 0.0071.
Sequence TGGGCGAGAG has a switch fluorescence ratio of 1.02 ± 0.034.
TGGGCGCCGG was tested, and the switch fluorescence ratio was 1 ± 0.013.
TGGGCGTGTG was tested, and the switch fluorescence ratio was 1.02 ± 0.017.
TGGGCGTTCT was tested, and the switch fluorescence ratio was 1.03 ± 0.081.
TGGGCTATAG was tested, and the switch fluorescence ratio was 1.03 ± 0.032.
TGGGCTATGC gave a switch fluorescence ratio of 0.986 ± 0.059.
Sequence TGGGCTCCGG has a switch fluorescence ratio of 1 ± 0.031.
Work on TGGGGAAAAA yielded a switch fluorescence ratio of 1.07 ± 0.11.
In the case of TGGGGAAACC, the switch fluorescence ratio is reported as 2.35 ± 2.3.
In the case of TGGGGAAGCG, the switch fluorescence ratio is reported as 0.988 ± 0.011.
With TGGGGAATGT the switch fluorescence ratio was 1.01 ± 0.042.
Sequence TGGGGAATTT has a switch fluorescence ratio of 0.987 ± 0.023.
Sequence TGGGGACACT has a switch fluorescence ratio of 1.02 ± 0.016.
TGGGGACGCT was tested, and the switch fluorescence ratio was 0.9977 ± 0.004.
Work on TGGGGACGTG yielded a switch fluorescence ratio of 1.013 ± 0.0047.
TGGGGACTTG was tested, and the switch fluorescence ratio was 0.9782 ± 0.0015.
For TGGGGAGGAG, the switch fluorescence ratio was 0.995 ± 0.017.
TGGGGAGGCA showed a switch fluorescence ratio of 0.97516 ± 0.00042.
With TGGGGAGGGA the switch fluorescence ratio was 0.983 ± 0.033.
TGGGGAGGGG was tested, and the switch fluorescence ratio was 0.991 ± 0.047.
Sequence TGGGGATCGA has a switch fluorescence ratio of 1.04 ± 0.011.
Work on TGGGGATTAG yielded a switch fluorescence ratio of 1.01 ± 0.033.
TGGGGCACCG gave a switch fluorescence ratio of 0.994 ± 0.029.
For TGGGGCAGCA, the switch fluorescence ratio was 1.01 ± 0.042.
For TGGGGCAGCG, the switch fluorescence ratio was 1.007 ± 0.0039.
In the case of TGGGGCCGAT, the switch fluorescence ratio is reported as 1.02 ± 0.021.
TGGGGCGCTA showed a switch fluorescence ratio of 1.07 ± 0.11.
With TGGGGCGTTT the switch fluorescence ratio was 1.01 ± 0.022.
With TGGGGCTCTA the switch fluorescence ratio was 1.03 ± 0.033.
TGGGGCTTAT was tested, and the switch fluorescence ratio was 0.987 ± 0.026.
TGGGGCTTTT was tested, and the switch fluorescence ratio was 1.02 ± 0.053.
Sequence TGGGGGAATC has a switch fluorescence ratio of 1.02 ± 0.046.
Work on TGGGGGAATG yielded a switch fluorescence ratio of 0.992 ± 0.0027.
TGGGGGACAT was tested, and the switch fluorescence ratio was 1.01 ± 0.028.
TGGGGGATGG showed a switch fluorescence ratio of 0.996 ± 0.057.
For TGGGGGCAGT, the switch fluorescence ratio was 1.12 ± 0.066.
TGGGGGCTGG showed a switch fluorescence ratio of 0.991 ± 0.013.
TGGGGGG gave a switch fluorescence ratio of 1.016 ± 0.0078.
TGGGGGGAAC was tested, and the switch fluorescence ratio was 1.02 ± 0.019.
With TGGGGGGAAG the switch fluorescence ratio was 0.994 ± 0.018.
TGGGGGGCGA was tested, and the switch fluorescence ratio was 0.997 ± 0.011.
Sequence TGGGGGGCGC has a switch fluorescence ratio of 0.989 ± 0.025.
For TGGGGGGCGT, the switch fluorescence ratio was 1.01 ± 0.043.
In the case of TGGGGGGGAG, the switch fluorescence ratio is reported as 0.996 ± 0.029.
TGGGGGGGCC showed a switch fluorescence ratio of 0.968 ± 0.0076.
TGGGGGGTGG showed a switch fluorescence ratio of 1 ± 0.041.
TGGGGGGTGT gave a switch fluorescence ratio of 1.02 ± 0.069.
TGGGGGTAAA was tested, and the switch fluorescence ratio was 0.9997 ± 0.0091.
TGGGGGTCCT showed a switch fluorescence ratio of 1.01 ± 0.031.
For TGGGGTACAC, the switch fluorescence ratio was 0.993 ± 0.024.
Sequence TGGGGTACGA has a switch fluorescence ratio of 1.01 ± 0.026.
